In IntAct's records for PubMed 19478065:

B1: Type 3 secretion system translocon protein SctE (Shigella flexneri), P18011 (parent)
chain: MHNVSTTTTGFPLAKILTSTELGDNTIQAANDAANKLFSLTIADLTANQNINTTNAHSTSNILIPELKAPKSLNASSQLTLLIGNLIQILGEKSLTALTNKITAWKSQQQARQQKNLEFSDKINTLLSETEGLTRDYEKQINKLKNADSKIKDLENKINQIQTRLSELDPESPEKKKLSREEIQLTIKKDAAVKDRTLIEQKTLSIHSKLTDKSMQLEKEIDSFSAFSNTASAEQLSTQQKSLTGLASVTQLMATFIQLVGKNNEESLKNDLALFQSLQESRKTEMERKSDEYAAEVRKAEELNRVMGCVGKILGALLTIVSVVAAAFSGGASLALAAVGLALMVTDAIVQAATGNSFMEQALNPIMKAVIEPLIKLLSDAFTKMLEGLGVDSKKAKMIGSILGAIAGALVLVAAVVLVATVGKQAAAKLAENIGKIIGKTLTDLIPKFLKNFSSQLDDLITNAVARLNKFLGAAGDEVISKQIISTHLNQAVLLGESVNSATQAGGSVASAVFQNSASTNLADLTLSKYQVEQLSKYISEAIEKFGQLQEVIADLLASMSNSQANRTDVAKAILQQTTA
B2: Chaperone protein IpgC (Shigella flexneri), P0A2U4 (parent)
chain: MSLNITENESISTAVIDAINSGATLKDINAIPDDMMDDIYSYAYDFYNKGRIEEAEVFFRFLCIYDFYNVDYIMGLAAIYQIKEQFQQAADLYAVAFALGKNDYTPVFHTGQCQLRLKAPLKAKECFELVIQHSNDEKLKIKAQSYLDAIQDIKE
partner: B1 chain

Variants of: B1
Conditions: with ipgc_shifl ipgC

Variant | effect of a mutation on the interaction
MHNVSTTTTGFPLAKILTSTELGDNTIQAANDAANKLFSLTIADLTANQNINTTNAHSTSNILIPELAAPKSLNASSQLTLLIGNLIQILGEKSLTALTNKITAWKSQQQARQQKNLEFSDKINTLLSETEGLTRDYEKQINKLKNADSKIKDLENKINQIQTRLSELDPESPEKKKLSREEIQLTIKKDAAVKDRTLIEQKTLSIHSKLTDKSMQLEKEIDSFSAFSNTASAEQLSTQQKSLTGLASVTQLMATFIQLVGKNNEESLKNDLALFQSLQESRKTEMERKSDEYAAEVRKAEELNRVMGCVGKILGALLTIVSVVAAAFSGGASLALAAVGLALMVTDAIVQAATGNSFMEQALNPIMKAVIEPLIKLLSDAFTKMLEGLGVDSKKAKMIGSILGAIAGALVLVAAVVLVATVGKQAAAKLAENIGKIIGKTLTDLIPKFLKNFSSQLDDLITNAVARLNKFLGAAGDEVISKQIISTHLNQAVLLGESVNSATQAGGSVASAVFQNSASTNLADLTLSKYQVEQLSKYISEAIEKFGQLQEVIADLLASMSNSQANRTDVAKAILQQTTA [K68A] | decreasing interaction strength
MHNVSTTTTGFPLAKILTSTELGDNTIQAANDAANKLFSLTIADLTANQNINTTNAHSTSNILIPELKADKSLNASSQLTLLIGNLIQILGEKSLTALTNKITAWKSQQQARQQKNLEFSDKINTLLSETEGLTRDYEKQINKLKNADSKIKDLENKINQIQTRLSELDPESPEKKKLSREEIQLTIKKDAAVKDRTLIEQKTLSIHSKLTDKSMQLEKEIDSFSAFSNTASAEQLSTQQKSLTGLASVTQLMATFIQLVGKNNEESLKNDLALFQSLQESRKTEMERKSDEYAAEVRKAEELNRVMGCVGKILGALLTIVSVVAAAFSGGASLALAAVGLALMVTDAIVQAATGNSFMEQALNPIMKAVIEPLIKLLSDAFTKMLEGLGVDSKKAKMIGSILGAIAGALVLVAAVVLVATVGKQAAAKLAENIGKIIGKTLTDLIPKFLKNFSSQLDDLITNAVARLNKFLGAAGDEVISKQIISTHLNQAVLLGESVNSATQAGGSVASAVFQNSASTNLADLTLSKYQVEQLSKYISEAIEKFGQLQEVIADLLASMSNSQANRTDVAKAILQQTTA [P70D] | disrupting interaction strength
MHNVSTTTTGFPLAKILTSTELGDNTIQAANDAANKLFSLTIADLTANQNINTTNAHSTSNILIPENKAPKSLNASSQLTLLIGNLIQILGEKSLTALTNKITAWKSQQQARQQKNLEFSDKINTLLSETEGLTRDYEKQINKLKNADSKIKDLENKINQIQTRLSELDPESPEKKKLSREEIQLTIKKDAAVKDRTLIEQKTLSIHSKLTDKSMQLEKEIDSFSAFSNTASAEQLSTQQKSLTGLASVTQLMATFIQLVGKNNEESLKNDLALFQSLQESRKTEMERKSDEYAAEVRKAEELNRVMGCVGKILGALLTIVSVVAAAFSGGASLALAAVGLALMVTDAIVQAATGNSFMEQALNPIMKAVIEPLIKLLSDAFTKMLEGLGVDSKKAKMIGSILGAIAGALVLVAAVVLVATVGKQAAAKLAENIGKIIGKTLTDLIPKFLKNFSSQLDDLITNAVARLNKFLGAAGDEVISKQIISTHLNQAVLLGESVNSATQAGGSVASAVFQNSASTNLADLTLSKYQVEQLSKYISEAIEKFGQLQEVIADLLASMSNSQANRTDVAKAILQQTTA [L67N] | disrupting interaction strength
MHNVSTTTTGFPLAKILTSTELGDNTIQAANDAANKLFSLTIADLTANQNINTTNAHSTSNILIRELKAPKSLNASSQLTLLIGNLIQILGEKSLTALTNKITAWKSQQQARQQKNLEFSDKINTLLSETEGLTRDYEKQINKLKNADSKIKDLENKINQIQTRLSELDPESPEKKKLSREEIQLTIKKDAAVKDRTLIEQKTLSIHSKLTDKSMQLEKEIDSFSAFSNTASAEQLSTQQKSLTGLASVTQLMATFIQLVGKNNEESLKNDLALFQSLQESRKTEMERKSDEYAAEVRKAEELNRVMGCVGKILGALLTIVSVVAAAFSGGASLALAAVGLALMVTDAIVQAATGNSFMEQALNPIMKAVIEPLIKLLSDAFTKMLEGLGVDSKKAKMIGSILGAIAGALVLVAAVVLVATVGKQAAAKLAENIGKIIGKTLTDLIPKFLKNFSSQLDDLITNAVARLNKFLGAAGDEVISKQIISTHLNQAVLLGESVNSATQAGGSVASAVFQNSASTNLADLTLSKYQVEQLSKYISEAIEKFGQLQEVIADLLASMSNSQANRTDVAKAILQQTTA [P65R] | disrupting interaction strength

Variants of: B2
Conditions: with scte_shifl sctE

Variant | effect of a mutation on the interaction
S41M;Y44G;G75Q;A78M | disrupting interaction strength
